Experimental data: paper PMC5385928 (Nature structural & molecular biology, 2016)

Legend:
[1] = biological target: DNA damage-binding protein 1 (DDB1), full length human (human, UniProt Q16531 1-1140); experiment: crystal structure
[2] = biological target: Uracil-DNA glycosylase UNG2, catalytic domain (residues 83-304) (human, UniProt P13051-2 83-304); experiment: crystal structure
Uracil-DNA glycosylase UNG2, catalytic domain (residues 83-304), sequence (P13051 92-313): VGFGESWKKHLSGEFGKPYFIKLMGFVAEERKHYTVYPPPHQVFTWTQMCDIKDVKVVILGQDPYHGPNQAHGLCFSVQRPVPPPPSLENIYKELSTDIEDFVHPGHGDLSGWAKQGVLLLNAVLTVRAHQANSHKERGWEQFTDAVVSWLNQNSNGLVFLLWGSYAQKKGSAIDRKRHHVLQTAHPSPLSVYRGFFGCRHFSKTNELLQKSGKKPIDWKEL

DNA damage-binding protein 1 (DDB1), full length human, sequence (Q16531 whole entry, the tested form may be a part): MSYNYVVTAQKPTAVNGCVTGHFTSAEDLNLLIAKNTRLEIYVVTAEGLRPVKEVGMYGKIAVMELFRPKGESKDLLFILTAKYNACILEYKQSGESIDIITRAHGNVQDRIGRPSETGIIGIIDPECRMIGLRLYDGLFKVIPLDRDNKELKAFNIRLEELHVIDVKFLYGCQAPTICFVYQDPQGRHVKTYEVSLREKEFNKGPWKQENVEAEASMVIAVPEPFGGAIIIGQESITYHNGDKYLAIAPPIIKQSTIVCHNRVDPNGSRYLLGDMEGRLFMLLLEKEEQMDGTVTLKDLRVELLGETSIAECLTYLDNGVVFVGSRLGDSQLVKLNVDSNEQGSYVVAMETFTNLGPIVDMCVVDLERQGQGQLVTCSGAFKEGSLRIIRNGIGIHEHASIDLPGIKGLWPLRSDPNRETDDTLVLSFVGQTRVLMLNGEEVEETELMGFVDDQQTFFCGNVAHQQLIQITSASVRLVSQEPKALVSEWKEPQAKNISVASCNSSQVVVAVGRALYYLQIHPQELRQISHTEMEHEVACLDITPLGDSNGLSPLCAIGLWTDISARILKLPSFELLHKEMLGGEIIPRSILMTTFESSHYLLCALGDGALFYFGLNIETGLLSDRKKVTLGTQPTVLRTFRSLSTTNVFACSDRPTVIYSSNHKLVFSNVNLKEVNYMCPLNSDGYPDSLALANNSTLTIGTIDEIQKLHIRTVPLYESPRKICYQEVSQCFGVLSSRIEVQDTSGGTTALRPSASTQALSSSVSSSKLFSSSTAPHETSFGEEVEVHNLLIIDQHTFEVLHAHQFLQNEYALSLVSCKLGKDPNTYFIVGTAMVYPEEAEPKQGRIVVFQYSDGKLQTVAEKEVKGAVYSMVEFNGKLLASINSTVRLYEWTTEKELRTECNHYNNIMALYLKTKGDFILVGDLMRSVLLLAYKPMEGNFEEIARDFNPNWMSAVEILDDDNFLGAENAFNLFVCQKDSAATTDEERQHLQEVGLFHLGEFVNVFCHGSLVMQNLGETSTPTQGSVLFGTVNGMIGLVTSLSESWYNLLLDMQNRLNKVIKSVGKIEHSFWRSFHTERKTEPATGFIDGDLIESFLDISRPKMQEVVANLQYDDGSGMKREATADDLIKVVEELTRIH

B1: DDB1- and CUL4A-associated factor 1 (DCAF1), C-terminal region including the WD40 domain (residues 1046-1396) (domain or fragment)
chain: not shown
Does B1 bind [1]?
Result: binds

B2: HIV-1 (NL4-3 clone) Vpr with H78C mutation (natural protein, UniProt P12520 1-96, looked up)
chain: MEQAPEDQGPQREPYNEWTLELLEELKSEAVRHFPRIWLHNLGQHIYETYGDTWAGVEAIIRILQQLLFIHFRIGCRCSRIGVTRQRRARNGASRS
Does B2 bind [2]?
Result: binds
